Each block holds one binder with its values, some of them ahead of it. No end group written: not given here.
What was measured:
[1] = target: human converting enzyme (human ACE) (human, UniProt P12821 30-1306, limits assumed); test: cell-based or functional assay
[2] = target: T1, rat lung ACE (angiotensin I converting enzyme in ground rat lung material) (rat, UniProt P47820 36-1313, limits assumed); test: cell-based or functional assay
T1 sequence (looked up): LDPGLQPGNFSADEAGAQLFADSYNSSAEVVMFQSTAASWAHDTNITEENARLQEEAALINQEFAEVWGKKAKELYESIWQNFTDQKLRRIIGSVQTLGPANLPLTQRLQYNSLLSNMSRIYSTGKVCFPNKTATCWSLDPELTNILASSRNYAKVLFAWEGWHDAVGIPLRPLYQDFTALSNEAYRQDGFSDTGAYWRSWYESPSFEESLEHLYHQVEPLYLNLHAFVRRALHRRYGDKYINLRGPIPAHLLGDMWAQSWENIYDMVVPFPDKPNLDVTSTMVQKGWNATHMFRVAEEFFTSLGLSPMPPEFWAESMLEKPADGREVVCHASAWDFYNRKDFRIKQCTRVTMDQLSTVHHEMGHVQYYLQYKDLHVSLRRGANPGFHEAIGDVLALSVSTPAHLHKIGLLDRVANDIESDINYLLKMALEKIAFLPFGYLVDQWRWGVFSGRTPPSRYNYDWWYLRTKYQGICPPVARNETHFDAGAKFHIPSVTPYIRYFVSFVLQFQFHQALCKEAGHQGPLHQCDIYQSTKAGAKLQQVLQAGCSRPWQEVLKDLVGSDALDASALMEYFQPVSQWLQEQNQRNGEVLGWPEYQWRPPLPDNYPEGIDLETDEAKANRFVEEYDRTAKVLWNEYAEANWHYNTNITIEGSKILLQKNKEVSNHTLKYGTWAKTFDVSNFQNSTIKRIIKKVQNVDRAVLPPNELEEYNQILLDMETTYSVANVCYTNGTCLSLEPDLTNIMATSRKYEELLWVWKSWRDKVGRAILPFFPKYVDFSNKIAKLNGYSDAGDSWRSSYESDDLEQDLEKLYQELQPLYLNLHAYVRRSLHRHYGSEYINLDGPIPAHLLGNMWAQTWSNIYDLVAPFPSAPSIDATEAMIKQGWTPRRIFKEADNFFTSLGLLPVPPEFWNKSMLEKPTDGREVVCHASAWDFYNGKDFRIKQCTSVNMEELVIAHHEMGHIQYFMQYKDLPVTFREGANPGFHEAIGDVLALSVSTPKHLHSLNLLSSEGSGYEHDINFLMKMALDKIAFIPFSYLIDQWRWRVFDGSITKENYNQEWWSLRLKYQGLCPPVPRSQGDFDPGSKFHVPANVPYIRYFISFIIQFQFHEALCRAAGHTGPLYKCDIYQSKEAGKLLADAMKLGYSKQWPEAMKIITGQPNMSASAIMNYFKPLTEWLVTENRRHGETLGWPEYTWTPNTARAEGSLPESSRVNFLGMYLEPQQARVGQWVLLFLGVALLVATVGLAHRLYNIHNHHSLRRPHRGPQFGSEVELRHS

in vitro degradation: % of peptide assayed relative to the control (enzyme immunoassay), T10 min, no captopril [1]: 79% | in vitro degradation: % of peptide assayed relative to the control (enzyme immunoassay), T10 min, with captopril 10 uM [1]: 90% | in vitro degradation: % of peptide assayed relative to the control (enzyme immunoassay), T30 min, no captopril [1]: 100% | in vitro degradation: % of peptide assayed relative to the control (enzyme immunoassay), T30 min, with captopril 10 uM [1]: 162% | in vitro degradation: % of peptide assayed relative to the control (enzyme immunoassay), T60 min, no captopril [1]: 116% | in vitro degradation: % of peptide assayed relative to the control (enzyme immunoassay), T60 min, with captopril 10 uM [1]: 78% | in vitro degradation: % of peptide assayed relative to the control (enzyme immunoassay), T120 min, no captopril [1]: 116% | in vitro degradation: % of peptide assayed relative to the control (enzyme immunoassay), T120 min, with captopril 10 uM [1]: 95% | in vitro degradation: % of peptide assayed relative to the control (enzyme immunoassay), T240 min, no captopril [1]: 107% | in vitro degradation: % of peptide assayed relative to the control (enzyme immunoassay), T240 min, with captopril 10 uM [1]: 104% | in vitro degradation: % of peptide assayed relative to the control (enzyme immunoassay), T1440 min, no captopril [1]: 86% | in vitro degradation: % of peptide assayed relative to the control (enzyme immunoassay), T1440 min, with captopril 10 uM [1]: 117% | in vitro degradation: % of peptide assayed relative to the control (enzyme immunoassay), T30 min, no captopril [2]: 100% | in vitro degradation: % of peptide assayed relative to the control (enzyme immunoassay), T30 min, with captopril 10 uM [2]: 125% | in vitro degradation: % of peptide assayed relative to the control (enzyme immunoassay), T60 min, no captopril [2]: 65% | in vitro degradation: % of peptide assayed relative to the control (enzyme immunoassay), T60 min, with captopril 10 uM [2]: 65% | in vitro degradation: % of peptide assayed relative to the control (enzyme immunoassay), T120 min, no captopril [2]: 95% | in vitro degradation: % of peptide assayed relative to the control (enzyme immunoassay), T120 min, with captopril 10 uM [2]: 109% | in vitro degradation: % of peptide assayed relative to the control (enzyme immunoassay), T240 min, no captopril [2]: 126% | in vitro degradation: % of peptide assayed relative to the control (enzyme immunoassay), T240 min, with captopril 10 uM [2]: 136%
B1: N-acetyl-Ser-Asp-Lys-Pro-NH2 (AcSDKP-NH2) (peptide)
peptide: Ac-SDKP-NH2

in vitro degradation: % of peptide assayed relative to the control (enzyme immunoassay), T10 min, no captopril [1]: 82% | in vitro degradation: % of peptide assayed relative to the control (enzyme immunoassay), T10 min, with captopril 10 uM [1]: 90% | in vitro degradation: % of peptide assayed relative to the control (enzyme immunoassay), T30 min, no captopril [1]: 75% | in vitro degradation: % of peptide assayed relative to the control (enzyme immunoassay), T30 min, with captopril 10 uM [1]: 100% | in vitro degradation: % of peptide assayed relative to the control (enzyme immunoassay), T60 min, no captopril [1]: 50% | in vitro degradation: % of peptide assayed relative to the control (enzyme immunoassay), T60 min, with captopril 10 uM [1]: 85% | in vitro degradation: % of peptide assayed relative to the control (enzyme immunoassay), T120 min, no captopril [1]: 25% | in vitro degradation: % of peptide assayed relative to the control (enzyme immunoassay), T120 min, with captopril 10 uM [1]: 85% | in vitro degradation: % of peptide assayed relative to the control (enzyme immunoassay), T240 min, no captopril [1]: 7% | in vitro degradation: % of peptide assayed relative to the control (enzyme immunoassay), T240 min, with captopril 10 uM [1]: 100% | in vitro degradation: % of peptide assayed relative to the control (enzyme immunoassay), T30 min, no captopril [2]: 28% | in vitro degradation: % of peptide assayed relative to the control (enzyme immunoassay), T30 min, with captopril 10 uM [2]: 129% | in vitro degradation: % of peptide assayed relative to the control (enzyme immunoassay), T60 min, no captopril [2]: 9% | in vitro degradation: % of peptide assayed relative to the control (enzyme immunoassay), T60 min, with captopril 10 uM [2]: 111% | in vitro degradation: % of peptide assayed relative to the control (enzyme immunoassay), T120 min, no captopril [2]: 5% | in vitro degradation: % of peptide assayed relative to the control (enzyme immunoassay), T120 min, with captopril 10 uM [2]: 75% | in vitro degradation: % of peptide assayed relative to the control (enzyme immunoassay), T240 min, no captopril [2]: 5% | in vitro degradation: % of peptide assayed relative to the control (enzyme immunoassay), T240 min, with captopril 10 uM [2]: 89%
B2: N-acetyl-Ser-Asp-Lys-Pro (AcSDKP) (peptide)
peptide: Ac-SDKP
